In IntAct's records for PubMed 20802461:

B1: Mitogen-activated protein kinase ERK-A (Drosophila melanogaster (Fruit fly)), P40417 (parent)
chain: MEEFNSSGSVVNGTGSTEVPQSNAEVIRGQIFEVGPRYIKLAYIGEGAYGMVVSADDTLTNQRVAIKKISPFEHQTYCQRTLREITILTRFKHENIIDIRDILRVDSIDQMRDVYIVQCLMETDLYKLLKTQRLSNDHICYFLYQILRGLKYIHSANVLHRDLKPSNLLLNKTCDLKICDFGLARIADPEHDHTGFLTEYVATRWYRAPEIMLNSKGYTKSIDIWSVGCILAEMLSNRPIFPGKHYLDQLNHILGVLGSPSRDDLECIINEKARNYLESLPFKPNVPWAKLFPNADALALDLLGKMLTFNPHKRIPVEEALAHPYLEQYYDPGDEPVAEVPFRINMENDDISRDALKSLIFEETLKFKERQPDNAP

Assays:
Details in all cases: with arrb2_human ARRB2, P32121
[1] = variants of: B1
[2] = variants of: B1; remark: listed apart in the source
[3] = variants of: B1; remark: listed apart in the source

effect of a mutation on the interaction [1] | effect of a mutation on the interaction [2] | effect of a mutation on the interaction [3] | Variant
disrupting interaction | disrupting interaction strength | – | T198E
disrupting interaction | – | decreasing interaction | Y200E
